Laboratory results published in article PMC6138665.

Experiments:
LC3B [1] = molecular target: LC3B (UniProt Q9GZQ8); experiment: co-immunoprecipitation of Myc-AMBRA1, LC3 blot; details: reference: Myc-AMBRA1 wild type; sites S1014
GABARAP-L2 = GABARAP-L2 (UniProt P60520); experiment: ITC, peptide titrated into GABARAP-L2; details: reference: unphosphorylated peptide P0; sites S1014
GABARAP-L1 = GABARAP-L1 (UniProt Q9H0R8); experiment: ITC, peptide titrated into GABARAP-L1; details: reference: unphosphorylated peptide P0; sites S1014
GABARAP-L1, sequence (Q9H0R8 whole entry, looked up): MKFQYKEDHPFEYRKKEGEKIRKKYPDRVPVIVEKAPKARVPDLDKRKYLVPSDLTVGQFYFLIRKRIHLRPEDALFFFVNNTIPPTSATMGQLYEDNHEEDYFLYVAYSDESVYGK

LC3B [2] = molecular target: LC3B (UniProt Q9GZQ8); experiment: NMR HSQC titration of 15N-LC3B; details: reference: unphosphorylated peptide P0; sites S1014
LC3A = LC3A (UniProt Q9H492); experiment: ITC, peptide titrated into LC3A; details: reference: unphosphorylated peptide P0; sites S1014
LC3C = LC3C (UniProt Q9BXW4); experiment: ITC, peptide titrated into LC3C; details: reference: unphosphorylated peptide P0; sites S1014
LC3C, sequence (Q9BXW4 whole entry, looked up): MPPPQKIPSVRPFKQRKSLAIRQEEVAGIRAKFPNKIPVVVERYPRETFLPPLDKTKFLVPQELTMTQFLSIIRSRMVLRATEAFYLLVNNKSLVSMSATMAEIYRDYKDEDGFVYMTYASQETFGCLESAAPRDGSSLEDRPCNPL

GABARAP-L2, sequence (P60520 whole entry, looked up): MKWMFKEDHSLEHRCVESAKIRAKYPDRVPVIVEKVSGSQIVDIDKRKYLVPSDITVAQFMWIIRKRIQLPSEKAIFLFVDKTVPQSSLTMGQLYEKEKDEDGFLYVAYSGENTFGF

Row | Substance | binding against the reference (LC3B [1]) | binding against the reference (GABARAP-L2) | binding against the reference (GABARAP-L1) | binding against the reference (LC3B [2]) | binding against the reference (LC3A) | binding against the reference (LC3C)
1 | AMBRA1 (from UniProt Q9C0C7-3) S1014A | weaker |  |  |  |  | 
2 | AMBRA1 AMBRA1-LIR (from UniProt Q9C0C7-3) pS1014 peptide P1 |  | stronger | stronger | stronger | stronger | stronger
